The text below walks through data of patent US20240197877A1, “BINDING PROTEINS RECOGNIZING HA-2 ANTIGEN AND USES […]” (published 2024).

Experiment [1] has as its target MYO3A/MYO3B peptide (…) on peptide-pulsed T2 cells, HLA-A*02:01 (human). The experiment in a line: cell-based or functional assay.
Experiment [2] addresses MALT1 peptide (…) on peptide-pulsed T2 cells, HLA-A*02:01 (human). The experiment in a line: cell-based or functional assay.

B1: HA2-MJ14-DP317 MGTM Sequence (also known as “TCR-101” and “MJ14-DP317”) (TCR, V domains shown)
V domain 1: QTVTQSQPEMSVQEAETVTLSCTYDTSESDYYLFWYKQPPSRQMILVIRQEAYKQQNATENRFSVNFQKAAKSFSLKISDSQLGDAAMYFCAYRSERYSTLTFGKGTMLLVSP
V domain 2: SQTIHQWPATLVQPVGSPLSLECTVEGTSNPNLYWYRQAAGRGLQLLFYSVGIGQISSEVPQNLSASRPQDRQFILSSKKLLLSDSGFYLCAWSVPYLAGGKRPDTQYFGPGTRLTVLE
Turning to B1, the “EC50 of cytotoxicity (AUC of growth of peptide-pulsed T2 cells over 72 h against peptide dose)” value in experiment [1] and in experiment [2] was 100 fold lower affinity than the target HA-2 peptide in each case.
